Assay [1] deals with T1, Flag/6xhis-CALRdel52 (CALRW12.007) (human, UniProt P27797 18-417).
T1 construct: also called human CALRdel52
T1 sequence (looked up): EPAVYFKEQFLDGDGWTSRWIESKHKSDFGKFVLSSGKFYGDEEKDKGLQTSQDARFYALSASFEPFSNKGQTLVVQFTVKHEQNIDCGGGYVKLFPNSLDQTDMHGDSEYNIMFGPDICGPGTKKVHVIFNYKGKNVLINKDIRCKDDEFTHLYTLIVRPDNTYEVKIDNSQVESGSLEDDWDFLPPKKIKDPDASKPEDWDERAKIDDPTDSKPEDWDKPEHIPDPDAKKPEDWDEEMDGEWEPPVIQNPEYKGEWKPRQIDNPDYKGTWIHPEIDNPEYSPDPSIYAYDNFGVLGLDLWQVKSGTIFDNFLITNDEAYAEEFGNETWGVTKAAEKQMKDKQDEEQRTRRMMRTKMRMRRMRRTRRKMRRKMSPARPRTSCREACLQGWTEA
Kind of assay: SPR, forced degradation: Release. (In general: SPR reads the build-up and loss of mass on a sensor chip optically.)

Assay [2] deals with T2, Avi/his-CalR-Ins5 (CALRW28.004) (human, UniProt P27797 18-417, limits assumed).
T2 construct: also called human CALRins5
T2 sequence (looked up): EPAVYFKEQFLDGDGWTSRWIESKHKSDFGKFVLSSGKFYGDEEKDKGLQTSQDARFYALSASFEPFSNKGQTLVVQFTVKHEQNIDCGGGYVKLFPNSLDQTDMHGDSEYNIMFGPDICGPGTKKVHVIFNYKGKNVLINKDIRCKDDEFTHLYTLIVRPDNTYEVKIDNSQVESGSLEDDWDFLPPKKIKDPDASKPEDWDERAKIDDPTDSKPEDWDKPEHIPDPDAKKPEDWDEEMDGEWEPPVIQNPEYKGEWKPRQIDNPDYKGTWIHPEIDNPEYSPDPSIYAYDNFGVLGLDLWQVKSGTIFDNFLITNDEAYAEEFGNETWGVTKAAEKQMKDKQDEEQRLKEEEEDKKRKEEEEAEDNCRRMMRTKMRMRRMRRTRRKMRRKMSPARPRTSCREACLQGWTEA
Kind of assay: SPR, forced degradation: Release.

Assay [3] has as its target T3, CD3EG-HSA-6xHis (CD3W220.002) (human, UniProt P07766 22-118; P09693 23-103).
T3 construct: also called human CD3; not shown: human serum albumin (HSA); 6xHis tag
Kind of assay: SPR, forced degradation: Release.

In assay [4] the target is T1, Flag/6xhis-CALRdel52 (CALRW12.007). Kind of assay: SPR, forced degradation: Metal Ox.
Assay [5] deals with T2, Avi/his-CalR-Ins5 (CALRW28.004). Description: SPR, forced degradation: Metal Ox.
For assay [6], the target named is T3, CD3EG-HSA-6xHis (CD3W220.002). Description: SPR, forced degradation: Metal Ox.
The next assay concerns the target T4, human FcRn (human, UniProt P55899 24-297; P61769 21-119, limits assumed).
T4 construct: Beta-2-microglobulin is not mentioned
Kind of assay: FcRn binding, method not stated.

The target of the next assay is cyno FcRn (cynomolgus monkey, UniProt Q8SPV9 24-297; Q8SPW0 21-119, limits assumed). Description: FcRn binding, method not stated.
Assay [7] has as its target T5, CD3 on primary human pan T cells (human, UniProt P07766 23-207).
T5 construct: whole, on cells; also called CD3e; CD3ε
Kind of assay: flow cytometry on pan CD3 T cells, 1 h at 37 C, AF647 secondary antibody, Geometric Mean. Here is the method:
FIG. 22 depicts binding of different CALRmutxCD3 bispecific antibodies to pan CD3 T cells. Flow cytometry was used to evaluate CALRmutxCD3 binding to pan CD3 T cells in vitro, by 1 hour 37° C. incubation, with subsequent incubation with secondary AF647-labeled antibody. Geometric mean fluorescence intensity of AF647 was measured to determine antibody binding.
Flow cytometry was used to evaluate the CD3 arm binding of CALRmutxCD3 antibodies listed in Table 21 to CD3+ pan T cells from healthy human donor. CALRmutxCD3 were tested after 1 hour 37° C. incubation with pan T cells.
In general terms: Flow cytometry measures light scatter and fluorescence of single cells or particles in a stream.

The target in assay [8] is T6, CALRins5 (mutant calreticulin, 5 base pair insertion, Type 2) expressed with MPL on engineered cancer cells (UniProt P27797 18-417).
T6 construct: whole, on cells; On the cell surface in complex with MPL; also called OCI-M2 MPL CALRins5
T6 sequence (looked up): T2 sequence (looked up)
Description: flow cytometry on OCI-M2 MPL CALRins5 cells, 1 h at 37 C, AF647 secondary antibody, Geometric mean. The method, then: FIGS. 27A-27F depict binding of different CALRmutxCD3 antibodies to CALRmut-negative or CALRmut-positive cells. Flow cytometry was used to evaluate CALRmutxCD3 binding to CALRmut-negative and CALRmut-positive cancer cells in vitro. CALRmutxCD3 antibodies were tested on a panel of cell lines, engineered to express MPL and CALRmut, after 1 hour 37° C. incubation, with subsequent incubation with secondary AF647-labeled antibody. Geometric mean fluorescence intensity of AF647 was measured to determine antibody binding.

We go through 1 molecule from patent US20260125457A1 (Janssen / Centocor, published 2026).

T3 sequence (P07766 other isoform, or with tags, fused parts or gaps): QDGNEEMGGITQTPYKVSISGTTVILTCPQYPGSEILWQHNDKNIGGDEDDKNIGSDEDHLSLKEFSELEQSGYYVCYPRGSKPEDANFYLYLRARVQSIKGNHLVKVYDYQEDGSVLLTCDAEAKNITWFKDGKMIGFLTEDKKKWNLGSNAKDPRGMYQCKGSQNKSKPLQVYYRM
T4 sequence (P55899 24-297 limits assumed, chain 1 of 2): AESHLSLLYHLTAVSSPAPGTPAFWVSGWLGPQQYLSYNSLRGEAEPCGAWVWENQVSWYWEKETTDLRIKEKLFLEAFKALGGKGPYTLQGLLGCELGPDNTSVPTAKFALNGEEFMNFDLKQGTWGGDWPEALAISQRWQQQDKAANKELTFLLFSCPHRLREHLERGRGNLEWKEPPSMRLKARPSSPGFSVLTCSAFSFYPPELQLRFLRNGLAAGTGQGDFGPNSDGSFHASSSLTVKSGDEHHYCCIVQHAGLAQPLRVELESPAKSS
T4 sequence (P61769 21-119 limits assumed, chain 2 of 2): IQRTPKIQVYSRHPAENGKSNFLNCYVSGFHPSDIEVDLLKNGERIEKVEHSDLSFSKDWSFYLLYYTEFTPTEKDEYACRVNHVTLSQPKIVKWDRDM
cyno FcRn, sequence (Q8SPV9 24-297 limits assumed, chain 1 of 2): as the sequence (P55899 24-297 limits assumed, chain 1 of 2) above, with N39D, E44Q, G99S, S189G, S190N, L217M, S269T counted along it
cyno FcRn, sequence (Q8SPW0 21-119 limits assumed, chain 2 of 2): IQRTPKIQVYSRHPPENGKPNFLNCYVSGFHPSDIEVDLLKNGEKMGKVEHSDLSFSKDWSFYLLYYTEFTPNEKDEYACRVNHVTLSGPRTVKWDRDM
T5 sequence (P07766 23-207): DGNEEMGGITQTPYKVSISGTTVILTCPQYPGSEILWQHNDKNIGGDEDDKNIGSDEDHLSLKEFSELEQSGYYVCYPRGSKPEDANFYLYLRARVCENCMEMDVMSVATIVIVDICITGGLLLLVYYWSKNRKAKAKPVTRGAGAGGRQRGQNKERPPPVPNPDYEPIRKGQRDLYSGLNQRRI

B1: C3CRB73 CALRmut x CD3 bispecific antibody (bispecific antibody, human IgG1, kappa, L234A L235A)
heavy: EVQLLESGGGLVQPGGSLRLSCAVSGIDLSNNAISWVRQAPGKGLEYVGVIGNTGDTYYADSAKGRFTISRDSSKTTLYLQMNSLRAEDTAVYFCVRGPPSYSSSVKNIWGQGTLVTVSSASTKGPSVFPLAPSSKSTSGGTAALGCLVKDYFPEPVTVSWNSGALTSGVHTFPAVLQSSGLYSLSSVVTVPSSSLGTQTYICNVNHKPSNTKVDKKVEPKSCDKTHTCPPCPAPEAAGGPSVFLFPPKPKDTLMISRTPEVTCVVVSVSHEDPEVKFNWYVDGVEVHNAKTKPREEQYNSTYRVVSVLTVLHQDWLNGKEYKCKVSNKALPAPIEKTISKAKGQPREPQVYTLPPSREEMTKNQVSLSCAVKGFYPSDIAVEWESNGQPENNYKTTPPVLDSDGSFFLVSKLTVDKSRWQQGNVFSCSVMHEALHNRFTQKSLSLSPGK
light: DIQMTQSPSSVSASVGDRVTITCQSSQSVYNNNWLSWLQQKPGKAPKRLIYDASKLESGVPSRFSGSGSGTDFTLTISSVQPEDAATYYCAGGFTGNVYTFGGGTKVEIKRTVAAPSVFIFPPSDEQLKSGTASVVCLLNNFYPREAKVQWKVDNALQSGNSQESVTEQDSKDSTYSLSSTLTLSKADYEKHKVYACEVTHQGLSSPVTKSFNRGEC
scFv: DIQMTQSPSSLSASVGDRVTITCRARQSIGTAIHWYQQKPGCAPKLLIKYASESISGVPSRFSGSGSGTDFTLTISSLQPEDFATYYCQQSGSWPYTFGQGTKLEIKGGGSGGSGGCPPCGGSGGEVQLVESGGGLVKPGGSLRLSCAASGFTFSRYNMNWVRQAPGKGLEWVSSISTSSNYIYYADSVKGRFTFSRDNAKNSLDLQMSGLRAEDTAIYYCTRGWGPFDYWGCGTLVTVSSEPKSSDKTHTCPPCPAPEAAGGPSVFLFPPKPKDTLMISRTPEVTCVVVSVSHEDPEVKFNWYVDGVEVHNAKTKPREEQYNSTYRVVSVLTVLHQDWLNGKEYKCKVSNKALPAPIEKTISKAKGQPREPQVYTLPPSREEMTKNQVSLWCLVKGFYPSDIAVEWESNGQPENNYKTTPPVLDSDGSFFLYSKLTVDKSRWQQGNVFSCSVMHEALHNHYTQKSLSLSPGK
notes: IgG1-AAS; also called JNJ-88549968; CALRB421 Fab x CD3 spFv
What is called Kd is the constant that tells how readily two partners part at equilibrium. A word on the EC50 (read off the curve): it is the midpoint of the concentration-response curve. In the case of B1, the “% Active” value in assay [1] amounted to 100%; in [2], 100%; in [3], 100%; in assay [4], 97%; in assay [5] it was 94%; in assay [6] it was 91%. The Kd in assay [1] amounted to 0.0602 nM; in assay [2] it was 0.0331 nM; in [3], 0.214 nM; in assay [4], 0.063 nM; in assay [5], 0.0356 nM; in assay [6] it was 0.272 nM. Also, the values for the Kd in the assay with human FcRn and with cyno FcRn were 1900 nM and 900 nM, respectively. Also, the “EC50 (read off the curve)” value is around 7 nM in assay [7] and around 5 nM in assay [8].
